Measurements as given in patent US20250115663A1 (CELLDEX THERAPEUTICS, published 2025).
Changes are numbered by the printed parent chain. One block for each binder: values may come before it.

Key:
[1] = biological target: T1, kappa-sCD40-Flag fusion protein, fragment amino acids 36-130 (human, UniProt P25942 56-150); assay: ELISA, kappa-sCD40-Flag fragment captured on anti-Flag
T1 construct: not shown: N-terminal human kappa light chain; C-terminal Flag tag
Experimental: (§1) 1 μg/ml of purified kappa-sCD40-Flag fusion proteins or CHO cell supernatants containing the sCD40 fusion proteins were captured to microtiter plates that were pre-coated with 5 μg/ml mouse anti-Flag antibody (Sigma) in PBS and blocked with 5% bovine serum albumin in PBS. Following incubation with the CD40 antibody, the microplates were washed with PBS/Tween, and incubated with a goat anti-human IgG Fc polyclonal reagent conjugated to horseradish peroxidase. After washing, the plates were developed with HRP substrate, and analyzed at OD 450-650 using a microtiter plate reader. An ELISA with a goat anti-human IgG Fab2-HRP to measure kappa chain binding was carried out in parallel to validate the sCD40 fusion protein expression from different transfections.

[2] = biological target: T2, kappa-sCD40-Flag fusion protein, fragment amino acids 84-173 (human, UniProt P25942 104-193); assay: as above
T2 construct: not shown: N-terminal human kappa light chain; C-terminal Flag tag
Experimental: as §1

[3] = biological target: T3, kappa-sCD40(1-94)-Flag mutant fragment A (multiple mutations of residues 1-5) (human, UniProt P25942 26-114); assay: ELISA, kappa-sCD40-Flag fusion captured on anti-Flag, anti-human IgG Fc-HRP
T3 construct: The text says only multiple mutations of residues 1-5 (human to mouse differences); that mutant A carries exactly these is inferred; also called A (1-5); not shown: N-terminal human kappa light chain; C-terminal Flag tag
Experimental: as §1

[4] = biological target: T4, kappa-sCD40(1-94)-Flag mutant fragment B (multiple mutations of residues 13-15); assay: as above
T4 construct: also called B (13-15)
Experimental: as §1

[5] = biological target: T5, kappa-sCD40(1-94)-Flag mutant fragment C (multiple mutations of residues 25, 26, 28 and 30); assay: as above
T5 construct: also called C (25, 26, 28, 30)
Experimental: as §1

[6] = biological target: T6, kappa-sCD40(1-94)-Flag mutant fragment D (multiple mutations of residues 33-36) (human, UniProt P25942 21-114); assay: as above
T6 construct: The text says only multiple mutations of residues 33-36 (human to mouse differences); that mutant D carries exactly these is inferred; also called D (33-36); not shown: N-terminal human kappa light chain; C-terminal Flag tag
T6 chain: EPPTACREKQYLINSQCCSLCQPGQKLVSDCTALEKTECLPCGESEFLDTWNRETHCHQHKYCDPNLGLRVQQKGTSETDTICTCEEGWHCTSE
Experimental: as §1

[7] = biological target: T4, kappa-sCD40(1-94)-Flag mutant fragment …; assay: as above; remark: listed apart in the source
[8] = biological target: T5, kappa-sCD40(1-94)-Flag mutant fragment …; assay: as above; remark: listed apart in the source
[9] = biological target: T7, kappa-sCD40(1-94)-Flag point mutant P2Q (human, UniProt P25942 21-114); assay: as above
T7 construct: not shown: N-terminal human kappa light chain; C-terminal Flag tag
T7 chain: T6 chain with P2Q, A33E, L34F, E35T, K36E

[10] = biological target: T8, kappa-sCD40-Flag fusion protein, full length ECD amino acid residues 1-173 (human, UniProt P25942 21-193); assay: ELISA, kappa-sCD40-Flag fusion (~1 ug/ml) captured on anti-Flag, anti-human IgG Fc-HRP
T8 construct: also called full length sCD40; not shown: N-terminal human kappa light chain; C-terminal Flag tag
Experimental: as §1

[11] = biological target: T9, kappa-sCD40-Flag fusion protein, fragment amino acids 1-94 (human, UniProt P25942 21-114); assay: as above
T9 construct: also called sCD40aa 1-94; not shown: N-terminal human kappa light chain; C-terminal Flag tag
Experimental: as §1

[12] = biological target: T1, kappa-sCD40-Flag fusion protein, …; assay: as above
Experimental: as §1

[13] = biological target: T2, kappa-sCD40-Flag fusion protein, …; assay: as above
Experimental: as §1

[14] = biological target: T10, kappa-sCD40(1-94)-Flag point mutant A5T (human, UniProt P25942 21-114); assay: ELISA, kappa-sCD40-Flag fusion (~2 ug/ml) captured on anti-Flag, anti-human IgG Fc-HRP
T10 construct: not shown: N-terminal human kappa light chain; C-terminal Flag tag
T10 chain: T6 chain with A5T, A33E, L34F, E35T, K36E
Experimental: as §1, with “containing” for “1 μg/ml of purified kappa-sCD40-Flag fusion proteins or CHO cell supernatants containing”

[15] = biological target: T6, kappa-sCD40(1-94)-Flag mutant fragment …; assay: ELISA, mutated kappa-sCD40(1-94)-Flag captured on anti-Flag
[16] = biological target: T11, kappa-sCD40(1-94)-Flag point mutant E33A (human, UniProt P25942 21-114); assay: as above
T11 construct: not shown: N-terminal human kappa light chain; C-terminal Flag tag
T11 chain: T6 chain with L34F, E35T, K36E

T1 sequence (P25942 56-150): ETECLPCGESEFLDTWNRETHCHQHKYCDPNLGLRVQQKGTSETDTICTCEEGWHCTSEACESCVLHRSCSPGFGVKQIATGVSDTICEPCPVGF
T2 sequence (P25942 104-193): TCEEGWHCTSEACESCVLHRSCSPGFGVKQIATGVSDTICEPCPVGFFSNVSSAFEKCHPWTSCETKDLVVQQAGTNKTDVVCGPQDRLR
T8 sequence (P25942 21-193): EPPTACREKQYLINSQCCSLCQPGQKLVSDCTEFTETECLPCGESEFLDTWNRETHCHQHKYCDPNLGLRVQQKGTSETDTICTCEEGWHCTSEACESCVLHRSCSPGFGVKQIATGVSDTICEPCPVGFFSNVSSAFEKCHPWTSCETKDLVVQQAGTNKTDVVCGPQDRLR

binding result [1]: no binding (tested: ~1 ug/ml fragment)
binding result [2]: no binding (tested: ~1 ug/ml fragment)
Average OD [3]: 0.189 OD 450-650
Average OD [4]: 2.03 OD 450-650
Average OD [5]: 1.49 OD 450-650
Average OD [6]: 0.092 OD 450-650
OD [7]: 2.38 OD 450-650
OD [8]: 2.02 OD 450-650
OD [9]: 2.2 OD 450-650
Average OD [10]: 1.26 OD 450-650
Average OD [11]: 1.8 OD 450-650
Average OD [12]: 0.024 OD 450-650
Average OD [13]: 0.024 OD 450-650
Average OD [14]: 1.13 OD 450-650
B1: anti-CD40 human monoclonal antibody 3C3 (antibody, human IgG2, kappa, V domains shown)
VH: QVQLVESGGGVVQPGRSLRLSCAGSGFIFSRYGMYWVRQAPGKGLEWVAVIWYDGSYKYYADSVKGRFTISRDNSKNTLYLQMNSLRAEDTAVYYCARESPWYYFDYWGQGTLVTVSS
VL: DIQMTQSPSSLSASVGDRVTITCRASQGISNYLAWYQQKPGKVPKLLIYAASTLQSGVPSRFSGSGSGTDFTLTISSLQPEDVATYYCQKYKSAPFTFGPGTKVDIKR
notes: Human IgG2, C-terminal lysine removed; also called anti-CD40 mAb 3C3; CD40 antibody 3C3

binding result [15]: no binding
binding result [16]: no binding
B2: anti-CD40 human monoclonal antibody 3G5 (antibody, human IgG2, V domains shown)
VH: QVQLVESGGGVVQPGKSLRLSCAASGFTFSSNGIHWVRQAPGKGLEWVAVIWSDGSNKFYADSVKGRFTISRDNSKNTLYLQMNSLRAEDTAVYYCARASGSGSYYNFFDYWGQGTLVTVSS
VL: EIVMTQSPATLSVSPGERATLSCRASQSVRSNLAWYQQKPGQAPRLLIYGASTRATGIPARFSGSGSGTEFTLTINSLQSEDFAVYYCQQHNKWITFGQGTRLEIK
notes: Human IgG2
